We go through six molecules from paper PMC6532856, “A single dose of antibody-drug conjugate cures a stage 1 model of African trypanosomiasis” (PLoS Neglected Tropical Diseases, 2019).

Sequences and labels used below:
B1: Tb017 scFv (scFv, V domains shown)
VH: QVQLVQSGAEVKKPGSSVKVSCKASGGTFSSYAISWVRQAPGQGLEWMGGIIPIFGTANYAQKFQGRVTITADESTSTAYMELSSLRSEDTAVYYCARGWWYDLVFDYWGQGTLVTVSS
VL: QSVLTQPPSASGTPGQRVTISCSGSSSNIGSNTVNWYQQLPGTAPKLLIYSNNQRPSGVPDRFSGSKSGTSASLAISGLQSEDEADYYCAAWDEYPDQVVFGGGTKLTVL
notes: framework domains and CDR1-3 marked; source: phage produced from E. coli, phage-containing supernatant
B2: Tb078 scFv (scFv, V domains shown)
VH: B1 VH with W101I, D103E, L104F, V105I, F106I, Y108A
VL: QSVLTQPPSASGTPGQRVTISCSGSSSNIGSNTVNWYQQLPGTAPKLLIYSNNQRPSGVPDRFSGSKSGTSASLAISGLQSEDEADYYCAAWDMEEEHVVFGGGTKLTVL
notes: as for B1
B3: Tb086 scFv (scFv, V domains shown)
VH: B1 VH with W101Y, D103H, L104G, V105G, F106I
VL: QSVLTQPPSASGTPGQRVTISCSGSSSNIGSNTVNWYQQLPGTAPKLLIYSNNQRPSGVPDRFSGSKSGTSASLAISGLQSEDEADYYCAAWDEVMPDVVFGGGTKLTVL
notes: as for B1
B4: Tb074 scFv (scFv, V domains shown)
VH: B1 VH with Y102H, D103E, L104P, V105G
VL: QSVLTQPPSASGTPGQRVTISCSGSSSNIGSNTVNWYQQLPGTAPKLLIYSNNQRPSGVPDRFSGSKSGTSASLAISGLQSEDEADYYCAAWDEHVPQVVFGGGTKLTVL
notes: as for B1
B5: Tb085 scFv (scFv, V domains shown)
VH: B1 VH with G99E, W100G, Y102D, D103Y, L104G, V105W, Y108F
VL: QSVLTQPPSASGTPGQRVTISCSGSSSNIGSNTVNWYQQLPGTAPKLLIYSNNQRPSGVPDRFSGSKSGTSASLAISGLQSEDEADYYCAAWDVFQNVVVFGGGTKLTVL
notes: as for B1
B6: Tb073 scFv (scFv, V domains shown)
VH: B1 VH with W101Y, Y102D, D103M, L104G, V105D, Y108M
VL: QSVLTQPPSASGTPGQRVTISCSGSSSNIGSNTVNWYQQLPGTAPKLLIYSNNQRPSGVPDRFSGSKSGTSASLAISGLQSEDEADYYCAAWDWHHGHVVVFGGGTKLTVL
notes: as for B1

Residue numbers refer to the chain shown, from its start.

The target in this test is T1, Recombinant HpHbR N-terminal domain (Trypanosoma brucei haptoglobin-haemoglobin receptor) (Trypanosoma brucei brucei, biotin (only for the protein coated on streptavidin-coated plates; site not stated)).
T1 construct: also called HpHbR NTD; TbHpHbR NTD; source: recombinant, expressed as previously described [34]
Kind of test: ELISA; phage ELISA: 10 ug/ml TbHpHbR NTD coated onto Nunc Maxisorp plates or 5 ug/mL biotinylated protein on streptavidin-coated plates overnight at 4°C; blocked phage supernatants 1 hr at room temperature; bound phage detected with anti-M13 HRP antibody; BSA and streptavidin in parallel. The following applies: one partner purified.
For B1, the binding result is on record as “binds”.

B2: the binding result was “binds”.

In the case of B3, the binding result is “binds”.

With B4, the binding result was “binds”.

In the case of B5, the binding result was “binds”.

As for B6, the binding result is reported as “binds”.
